According to article doi:10.1101/2021.09.10.459853v1 (bioRxiv, 2021):

How the values were obtained:
[1] = cited from earlier work
[2] = Integrative optical imaging; type: physicochemical; conditions: IOI, 0.3% dilute agarose gel in PBS; 31°C; n=30 records; Mean ± S.D.; SD
[3] = biological target: SST2 receptor (hSSTR2) in SST2 CNiFER clone #5F3 (Homo sapiens, UniProt P30874); assay: SST2 CNiFER FRET response, plate reader; type: cell-based; conditions: 1000 nM; n = 3-6
[4] = cited from earlier work; remark: listed apart in the source
[5] = tested on: SST2 CNiFERs implanted in mouse cortex; assay: SST volume transmission in vivo, core-satellite SST2 CNiFER implants; conditions: normal mouse cortex; distance less than 130 μm
[6] = tested on: hyaluronan in mouse brain cortex; assay: HABP immunostaining after intraventricular hyaluronidase; type: in vivo; conditions: two days after hyase injection, n = 5 slices

Sequence of SST2 receptor (hSSTR2) in SST2 CNiFER clone #5F3 (P30874 whole entry): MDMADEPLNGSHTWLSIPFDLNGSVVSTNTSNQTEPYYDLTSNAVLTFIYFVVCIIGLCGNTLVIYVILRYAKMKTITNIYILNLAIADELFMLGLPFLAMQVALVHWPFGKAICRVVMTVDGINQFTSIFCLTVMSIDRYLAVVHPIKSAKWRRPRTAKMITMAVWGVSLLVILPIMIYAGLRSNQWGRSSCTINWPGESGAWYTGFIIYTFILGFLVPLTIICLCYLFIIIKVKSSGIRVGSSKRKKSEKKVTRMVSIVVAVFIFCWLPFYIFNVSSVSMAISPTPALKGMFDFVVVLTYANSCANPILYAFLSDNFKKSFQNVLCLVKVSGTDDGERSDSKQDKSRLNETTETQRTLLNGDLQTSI

vasopressin
half-life in brain cerebrospinal fluid (CSF) [1]: ~ 20 mins

Fluorescein-5(6)-carbonyl-somatostatin-14 [5(6)-FAM-SST]
free diffusion coefficient (D) [2]: (3.00 ± 0.18) × 10^-6 cm^2•s^-1

CC(=O)OCC[N+](C)(C)C [acetylcholine]
FRET response of SST2 CNiFERs [3]: small response

C[C@H](N)C(=O)NCC(=O)N[C@H]1CSSC[C@@H](C(=O)O)NC(=O)[C@H](CO)NC(=O)[C@H]([C@@H](C)O)NC(=O)[C@H](Cc2ccccc2)NC(=O)[C@H]([C@@H](C)O)NC(=O)[C@H](CCCCN)NC(=O)[C@H](Cc2c[nH]c3ccccc23)NC(=O)[C@H](Cc2ccccc2)NC(=O)[C@H](Cc2ccccc2)NC(=O)[C@H](CC(N)=O)NC(=O)[C@H](CCCCN)NC1=O [SST, Somatostatin-14]
half-life in plasma [4]: 1 to 3 min | time to activate SST2 CNiFERs [5]: below 10 s

hyaluronidase
cell nuclei number or size in cortex compared with control group [6]: no differences

oxytocin
half-life in brain cerebrospinal fluid (CSF) [1]: ~ 20 mins
